This test addresses T1, GST-CCPG1 NTD (bacterial) (1-230) (human, UniProt Q9ULG6 1-230).
T1 construct: CCPG1, human, N-terminal amino acids 1-230 (NTD); source: E. coli Rosetta II (DE3), pre-purified on glutathione Sepharose beads
T1 sequence (looked up): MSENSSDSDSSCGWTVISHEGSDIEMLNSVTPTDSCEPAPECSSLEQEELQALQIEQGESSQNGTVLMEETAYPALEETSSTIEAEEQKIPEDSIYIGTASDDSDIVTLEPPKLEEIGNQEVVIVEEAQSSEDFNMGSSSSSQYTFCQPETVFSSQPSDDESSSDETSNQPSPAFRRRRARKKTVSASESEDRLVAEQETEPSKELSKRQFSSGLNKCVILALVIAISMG
Description: pull-down; GST-CCPG1 NTD pre-purified on glutathione Sepharose beads, incubated with purified recombinant protein (His-GABARAP or His-FIP200) in IGEPAL IP buffer, 4°C; immunoblot. As to conditions: both partners purified.

B1: His-GABARAP (natural protein, human, UniProt O95166 1-117, looked up)
chain: MKFVYKEEHPFEKRRSEGEKIRKKYPDRVPVIVEKAPKARIGDLDKKKYLVPSDLTVGQFYFLIRKRIHLRAEDALFFFVNNVIPPTSATMGQLYQEHHEEDFFLYIAYSDESVYGL
notes: GABARAP, human ATG8 ortholog; also called purified, recombinant His-GABARAP; source: recombinant, purified
B1: the binding result is “binds”.

The values are drawn from paper PMC5791736, “CCPG1 Is a Non-canonical Autophagy Cargo Receptor Essential for ER-Phagy and Pancreatic ER Proteostasis” (Developmental Cell, 2018).
